Experiment [1] addresses PD-1 (antigen of the ELISA and of the in vitro affinity measurement) (UniProt Q15116). In words: ELISA. Also on record: Bmax: unit not given here.
Another experiment has as its target hPD1-mFc (human). Description: kinetic binding table: huPDL1-hFc captured as ligand (capture level 53.4 RU), hPD1-mFc as sample; method not given.

Experimental findings from patent US20230365641A1 are described below.

Sequence of hPD1-mFc (human) (Q15116 25-170): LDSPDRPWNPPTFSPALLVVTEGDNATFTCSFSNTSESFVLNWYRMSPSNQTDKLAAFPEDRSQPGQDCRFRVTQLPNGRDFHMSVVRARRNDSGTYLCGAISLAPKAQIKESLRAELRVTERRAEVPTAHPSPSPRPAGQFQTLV
Sequence of PD-1 (antigen of the ELISA and of the in vitro affinity measurement) (Q15116 25-167 limits assumed): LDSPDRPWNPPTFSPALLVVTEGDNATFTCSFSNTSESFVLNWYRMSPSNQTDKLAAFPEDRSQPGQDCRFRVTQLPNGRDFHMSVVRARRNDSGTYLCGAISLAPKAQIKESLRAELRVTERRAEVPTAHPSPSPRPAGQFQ

In experiment [1], XR034 (Pembro IgG) (antibody) gave a Bmax of 1.37 and a Kd of 0.00032 µM.

Consider “huPDL1-hFc (from UniProt Q9NZQ7) (Fc fusion)”, for which, in the experiment with hPD1-mFc (human), the Kd turned out to be 0.0741 µM, the koff is 0.025 s⁻¹ and the kon amounted to 338000 M⁻¹ s⁻¹.

A word on the Kd: it is the constant that tells how readily two partners part at equilibrium. What is called koff is the first-order rate constant of dissociation. Usually kon stands for the second-order rate constant of association.
